A value given as a limit tells only on which side of the number the result lay.

One test addresses T1, human MCP-3 (human, UniProt P80098 24-99).
T1 construct: also called hMCP-3
Description: ELISA. (In general: ELISA stands for enzyme-linked immunosorbent assay.)

In test [1] the target is T2, human MCP-2 (human, UniProt P80075 24-99).
T2 construct: also called hMCP-2; huMCP-2
T2 sequence (looked up): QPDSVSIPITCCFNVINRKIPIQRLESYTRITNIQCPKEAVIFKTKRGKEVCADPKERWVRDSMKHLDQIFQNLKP
Put plainly: ELISA on immobilised MCP-2, absorbance 450 nm.

In test [2] the target is T3, human MCP-1 (human, UniProt P13500 24-99).
T3 construct: also called hMCP-1; huMCP-1
Put plainly: ELISA on plate-coated human MCP-1, anti-human IgG-HRP; y axis unlabelled, OD 405 nm per paragraph 382. The protocol:
(§1) Binding specificities of chimeric 11K2 and the four versions of humanized 11K2 (H1-L1, H1-L2, H2-L1, and H2-L2) were determined by ELISA, according to the protocol described in Example 1.
(§2) ELISA plates (Corning, Inc. Cat#3369) were coated with 50 ng MCP-1 per well overnight at 4° C. Plates were washed then blocked with PBS/5% milk for 1.5 hrs at 25° C. Another wash was followed by incubation with the 11K2 mAbs (or 3G9 isotype control) at the concentrations indicated for 1 hr at 25° C. After washing, the plates were incubated with secondary antibody (anti-human IgG-HRP, Jackson Immunoresearch Cat#109-036-088) for 1 hr at 25° C. Plates were then washed and developed using the ABTS Peroxidase Substrate Kit (Vector Laboratories Cat#SK-4500). OD (405 nm) values were plotted as a function of 11K2 mAb concentration.

A further test has as its target T4, murine MCP-1 (JE) (mouse, UniProt P10148 24-148).
T4 construct: also called mMCP-1 (JE); muMCP-1
Description: ELISA on plate-coated murine MCP-1, anti-human IgG-HRP; y axis unlabelled, OD 405 nm per paragraph 382. The protocol: as §1, §2

The next test deals with T5, human fractalkine (human, UniProt P78423 25-100, limits assumed).
T5 sequence (looked up): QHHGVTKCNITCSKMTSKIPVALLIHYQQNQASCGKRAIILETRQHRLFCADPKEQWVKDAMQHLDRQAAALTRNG
Put plainly: ELISA, supernatant. As for the experimental part: (§3) MaxiSorp 384 well plates were coated with 15-20 μl antigen in PBS. Recombinant purified human antigens included: MCP-1, MCP-2, MCP-3, MCP-4, IL-8, eotaxin, fractalkine, Gcp-2, DC-CK (Gcp-2 and DC-CK are also chemokines). Plates were incubated with antigen for 2 hours at 37° C. or overnight at 4° C. Non-specific sites were blocked with 80 μl/well of 1% BSA/PBS for 1 hour at room temperature. Plates were washed and 15 μl of hybridoma supernatant was added to each well and incubated for 1 hour at room temperature. Plates were washed and wells were incubated with 20 μl/well of a 1:25 000 dilution of goat anti-mouse IgG peroxidase conjugate (Jackson Catalog Number 515-036-003). Plates were incubated for 1 hour at room temperature, washed, and 20 μl/well of substrate (TMB, tetramethylbenzidine, Jackson, Catalog Number 515-036-062) was added. Reaction was allowed to proceed and stopped by addition of 20 μl/well of 2M H₂SO₄. Reactive clones were picked for further analysis. Isotyping of hybridoma supernatants was performed by antigen-dependent ELISA. Briefly, wells were coated with 50 μl of human MCP-1 (5 μg/ml) for 1 hour at 37° C. Wells were washed 4 times and blocked with PBS/1% BSA. Isotyping of hybridoma supernatants was then performed using a mouse immunoglobulin screening/isotyping kit (Zymed Laboratories, San Francisco, —CA) as recommended by the manufacturer.

Another test concerns the target human Gcp-2 (human, UniProt P80162 38-114, limits assumed). Description: ELISA, supernatant. The protocol:
as §3

For a further test, the target named is T6, human DC-CK (human, UniProt P55774 21-89).
T6 sequence (looked up): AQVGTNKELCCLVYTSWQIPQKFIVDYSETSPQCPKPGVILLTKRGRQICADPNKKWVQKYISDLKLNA
Description: ELISA, supernatant. As for the experimental part:
as §3

For test [3], the target named is T3, human MCP-1. Put plainly: KinExA, in solution. As for the experimental part:
(§4) Polymethylmethacrylate beads activated with NHS were coated with 10 μg recombinant human MCP-1 in 1 ml buffer. The beads were packed into a column in the KinExA instrument for each sample. This packed bead column is able to capture free MCP mAb or Fab flowed through the column. The amount of free mAb or Fab in solution was determined using a secondary goat anti-mouse heavy and light chain IgG-Cy5 conjugate.
(§5) A fixed amount of 11K2 mAb, 1A1 mAb, 11K2 Fab, or 1A1 Fab was incubated with various amounts of human MCP-1, MCP-2 or MCP-3 for three hours. The amount of uncomplexed free antibody remaining in solution was determined by flowing these mixtures over the MCP-1-loaded bead column and labeling with the Cy5 secondary antibody. The fluorescent signal was plotted against the MCP concentration and the affinity was determined using a quadratic curve fit
On the technique in general: Kinetic exclusion samples the free partner from a solution-phase mixture.

The target of test [4] is T2, human MCP-2. Description: KinExA, in solution; intact bivalent mAb, not Fab. The protocol:
as §4, §5

A further test deals with T7, human eotaxin (human, UniProt P51671 24-97).
T7 construct: also called hEotaxin
Description: ELISA, purified mAb. As for the experimental part:
(§6) ELISA specificity assays were performed using purified monoclonal antibodies to confirm the binding specificities of the supernatant MCP-specific monoclonal antibodies described above. Antibodies were purified by Protein A affinity column chromatography, according to standard methods known in the art.
(§7) ELISA was performed as previously described in Example 1. Briefly, MaxiSorp 384 well plates were coated with 15-20 μl antigen in PBS. Recombinant purified human antigens included: MCP-1, MCP-2, MCP-3, MCP-4, IL-8, eotaxin, murine MCP-1 (JE), murine MCP-3, murine MCP-5, and rat MCP-1. All antigens, including MCP-3, were immobilized. Plates were washed and purified monoclonal antibody (10 μg/ml) was added to each well and incubated for 1 hour at room temperature. Plates were washed and wells were incubated with 20 μl/well of a 1:25,000 dilution of goat anti-mouse IgG peroxidase conjugate (Jackson Catalog Number 515-036-003). Plates were incubated for 1 hour at room temperature, washed, and 20 μl/well of substrate (, tetramethylbenzidine, Jackson, Catalog Number 515-036-062) was added. Reaction was allowed to proceed and stopped by addition of 20 μl/well of 2M H₂SO₄. Antibodies 1A1 bound specifically to hMCP-1, hMCP-2, hMCP-3, and mMCP-1. Antibodies 11K2, 4N4, 5A13, 6D21, 615, and 7H1 bound specifically to hMCP-1, hMCP-2, hMCP-3, mMCP-1, mMCP-3, and mMCP-5.

Another test has as its target T8, human IL-8 (human, UniProt P10145 28-99, limits assumed).
T8 construct: also called hIL8
Put plainly: ELISA, purified mAb. The protocol:
as §6, §7

A further test addresses T9, human MCP-4 (human, UniProt Q99616 24-98, limits assumed).
T9 construct: also called hMCP-4
Description: ELISA, purified mAb. The protocol:
as §6, §7

Test [5] concerns the target T2, human MCP-2. Description: KinExA, in solution; Fab, not intact mAb.
Test [6] deals with T3, human MCP-1. Put plainly: KinExA, in solution, Fab. As for the experimental part:
(§8) 1 ml of MCP-1 at a concentration of 10 μg/ml in NaHCO₃ was added to an amount of beads equivalent to 1 ml of the original slurry. The beads were rocked overnight at 4° C. Beads were spun down and washed once with 1M Tris, pH 8.0, then resuspended in 1M Tris pH 8.0 with 1% BSA, 0.02% azide. The beads were rocked at room temperature for one hour then stored at 4° C. in this buffer for the duration of the experiments.
(§9) The KinExA 3000 measures protein-protein interaction in solution, and is ideally suited for measuring affinities of antibodies to antigens. In the typical experiment, antigen (MCP) is immobilized on a bead, antibody is flowed over a column of these beads at a given concentration, and the antibody that binds to the beads is detected using a fluorescent secondary. Antibody at a fixed concentration is then incubated with different concentrations of antigen in solution and the amount of free antibody is measured by flowing the mixture over the bead column quickly enough that no re-equilibration occurs between solution and solid phase. The amount of antibody remaining free is plotted against the concentration of antigen added and the data are fit to a quadratic equation to determine the affinity of the interaction in solution.
(§10) In these experiments, the only difference to the typical experiment described above is that instead of using intact antibody, a Fab fragment of 11K2 was used. Earlier KimExA experiments using the intact murine 11K2 mAb binding to MCP-1 and MCP-2 gave biphasic curves that the software could not interpret. This may be due to these proteins acting as dimers, so to eliminate the dimer/dimer interaction we generated Fab fragments. The binding of the 11K2 Fab fragments to MCP-1 and MCP-2 produced curves that the KinExA software could fit.

Test [7] deals with T2, human MCP-2. Description: KinExA, in solution, Fab. The protocol: as §8, §9, §10
In test [8] the target is T2, human MCP-2. Description: KinExA, in solution. The protocol: as §4, §5

B1: humanized 11K2 H1-L1 (antibody, human IgG1, kappa, V domains shown)
VH: QVQLVQSGAEVKKPGSSVKVSCKASGLNIKDTYMHWVRQAPGQGLEWIGRIDPANGNTKFDPKFQGRATITADTSTSTAYMELSSLRSEDTAVYYCARGVFGFFDYWGQGTTVTVSS
VL: DIQMTQSPSSLSASVGDRVTITCKATEDIYNRLAWYQQKPGKAPKLLISGATSLETGVPSRFSGSGSGKDYTLTISSLQPEDFATYYCQQFWSAPYTFGGGTKVEIKR
notes: human IgG1 kappa; also called hu11K2
A word on the EC50 (read off the curve): it is the midpoint of the concentration-response curve. With B1, the binding result with human MCP-3 is on record as “no binding”; with murine MCP-1 (JE) it was “binds”. The entries for the “EC50 (read off the curve)” value with human MCP-2 [1] and in the test with human MCP-1 [2] were ~0.3 µg/mL and ~0.02 µg/mL, respectively.

B2: humanized 11K2 H2-L1 (antibody, human IgG1, kappa, V domains shown)
VH: QVQLVQSGAEVKKPGSSVKVSCKASGLTISDTYMHWVRQAPGQGLEWMGRIDPANGNTKFDPKFQGRVTITADTSTSTAYMELSSLRSEDTAVYYCARGVFGFFDYWGQGTTVTVSS
VL: DIQMTQSPSSLSASVGDRVTITCKATEDIYNRLAWYQQKPGKAPKLLISGATSLETGVPSRFSGSGSGKDYTLTISSLQPEDFATYYCQQFWSAPYTFGGGTKVEIKR
notes: human IgG1 kappa
Regarding B2, the figures for the binding result in the test with human MCP-3 and in the test with murine MCP-1 (JE) were “no binding” and “binds”, respectively. The “EC50 (read off the curve)” value with human MCP-2 [1] was ~0.2 µg/mL; in the test with human MCP-1 [2], ~0.02 µg/mL.

B3: mouse monoclonal antibody 1A1 (antibody, V domains shown)
VH: EVQLQQSGAELVRSGASVKLSCTASGFNIKDNYMHWVKQRPEQGLEWIGWIDPENGDTEYAPKFQGKATMTADTSSNTAYLQLSSLTSEDTAVYYCNTWAYYGTSYGGFAYWGQGTTVTVSS
VL: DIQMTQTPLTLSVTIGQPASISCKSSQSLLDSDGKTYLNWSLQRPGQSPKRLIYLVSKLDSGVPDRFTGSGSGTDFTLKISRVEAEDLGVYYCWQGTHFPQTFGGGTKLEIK
notes: mouse IgG1; also called 1A1.1; mu1A1
Turning to B3, the binding result is listed as “no binding” in the test with human fractalkine; “no binding” with human Gcp-2; “no binding” with human DC-CK; “no binding (tested: 10 µg/ml)” in the test with human eotaxin; “no binding (tested: 10 µg/ml)” with human IL-8; “no binding (tested: 10 µg/ml)” with human MCP-4. For the same molecule, the Kd with human MCP-1 [3] was < 0.0007 nM; in the test with human MCP-2 [4], 0.0012 nM.

B4: Fab fragment of murine 1A1 (Fab, V domains shown)
VH: EVQLQQSGAELVRSGASVKLSCTASGFNIKDNYMHWVKQRPEQGLEWIGWIDPENGDTEYAPKFQGKATMTADTSSNTAYLQLSSLTSEDTAVYYCNTWAYYGTSYGGFAYWGQGTTVTVSS
VL: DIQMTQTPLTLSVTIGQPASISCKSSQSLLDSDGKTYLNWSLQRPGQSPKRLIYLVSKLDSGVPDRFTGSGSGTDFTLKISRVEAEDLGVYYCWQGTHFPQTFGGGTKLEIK
notes: also called 1A1 Fab
B4: the Kd with human MCP-2 [5] stood at 0.32 nM; with human MCP-1 [3], 0.013 nM; with human MCP-1 [6] it was 0.0129 nM; with human MCP-2 [7], 0.32 nM.

B5: chimeric 11K2 antibody (antibody, human IgG1, kappa, V domains shown)
VH: EVQLQQSGAELVKAGASVKLSCPASGLNIKDTYMHWVKQRPEQGLEWIGRIDPANGNTKFDPKFQGKATITADTSSNTAYLQLSSLTSEDTAVYYCARGVFGFFDYWGQGTTLTVSS
VL: DIQMTQSSSSFSVSLGDRVTITCKATEDIYNRLAWYQQKPGSAPRLLISGATSLETGVPSRFSGSGSGKDYTLSITSLQTEDVATYYCQQFWSAPYTFGGGTKLEIKR
notes: murine 11K2 variable domains with human IgG1 and kappa constant regions; also called Chimera; ch11K2
On to B5, for which the “EC50 (read off the curve)” value in the test with human MCP-1 [2] and in the test with murine MCP-1 (JE) was ~0.02 µg/mL each time.

B6: mouse monoclonal antibody 11K2 (antibody, V domains shown)
VH: EVQLQQSGAELVKAGASVKLSCPASGLNIKDTYMHWVKQRPEQGLEWIGRIDPANGNTKFDPKFQGKATITADTSSNTAYLQLSSLTSEDTAVYYCARGVFGFFDYWGQGTTLTVSS
VL: DIQMTQSSSSFSVSLGDRVTITCKATEDIYNRLAWYQQKPGSAPRLLISGATSLETGVPSRFSGSGSGKDYTLSITSLQTEDVATYYCQQFWSAPYTFGGGTKLEIK
notes: mouse IgG1; also called 11K2.1; mu11K2
Take B6: the binding result with human fractalkine is “no binding”; with human Gcp-2, “no binding”; with human DC-CK it was “no binding”; with human eotaxin, “no binding (tested: 10 µg/ml)”; with human IL-8, “no binding (tested: 10 µg/ml)”; with human MCP-4, “no binding (tested: 10 µg/ml)”. For the same molecule, the Kd was < 0.0004 nM in the test with human MCP-1 [3] and 0.018 nM in the test with human MCP-2 [8].

For the origin of these results see patent US20070134236A1 (Biogen, published 2007).
